Source: the supplement of paper PMC10567573
± gives the standard deviation.

Assay: protein stability index of a GFP-peptide fusion (GPS, HEK-293T) (PSI 1-6); higher = more stable
[1] = treatment: DMSO, c terminus: a fixed tail appended
[2] = treatment: MLN4924 1 uM, 8 h, c terminus: a fixed tail appended
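Note: 24-mer peptide tiles fused after GFP, lentivirally expressed, FACS-sorted into six equal bins by GFP/DsRed ratio, decoded by Illumina sequencing, PSI is the read-weighted mean bin number.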

| Sequence | protein stability index [1] | protein stability index [2] | protein stability index (treatment: DMSO, c terminus: native) | protein stability index (treatment: MLN4924 1 uM, 8 h, c terminus: native) |
| --- | --- | --- | --- | --- |
| VSPPESPTVTTSWQSESLPVSLSA [BCL2L13] | 4.43 ± 0.08 | 4.37 ± 0.27 | – | – |
| HKKKSPGEKPHRCPQCGKCFARKS [ZNF449] | 3.86 ± 0.55 | 4.23 ± 0.43 | – | – |
| IASIADVCESMKEQLLVLVEWAKY [HNF4A] | 2.42 ± 0.36 | 2.15 ± 0.38 | – | – |
| AQGFAADVRLMFSNCYKYNPPDHE [BRD3] | 2.99 ± 0.31 | 2.8 ± 0.39 | – | – |
| GSGDSGDSSEEESHRVVLRPRGKE [LYSMD4] | 5.55 ± 0.19 | 5.35 ± 0.12 | – | – |
| KKTQETLSQAGQKTSAALSTVGSA [TPD52L2] | 4.87 ± 0.24 | 4.99 ± 0.25 | – | – |
| HFHPTVIGESMYGDFEEAFDHLQN [TENT5C] | 3.82 ± 0.064 | 3.9 ± 0.37 | – | – |
| VKLNVGGSLHYTTLRTLTGQDTML [KCTD13] | 2.45 ± 0.47 | 2.27 ± 0.28 | – | – |
| FVFSTEERTQLRLESLEDTHIMKG [TRIB1] | 2.85 ± 0.63 | 3.36 ± 0.41 | – | – |
| EHKLKVVRDQISHCTVKLRQTTGL [TRIM9] | 3.35 ± 0.13 | 3.24 ± 0.25 | – | – |
| SNADQLMENIGAIQVLPKLSSSII [KCNAB2] | 3.21 ± 0.38 | 3.23 ± 0.29 | – | – |
| QSLLGYTPEELHAMLDVKPDADE [ETS1] | – | – | 5.2 ± 0.36 | 5.18 ± 0.32 |
| FVVEYHGDLIEITDAKKREALYAQ [KMT5A] | 2.65 ± 0.34 | 2.73 ± 0.41 | – | – |
| EVRYYLRQIVSGLKYLHEQEILHR [PLK2] | 3.11 ± 1 | 2.91 ± 0.58 | – | – |
| DANTWRLYGGMNYRRLGGGVGVIK [KLHL20] | 2.63 ± 0.24 | 2.54 ± 0.38 | – | – |
| LEEFKENAYKDLAWKHGNIHLSAP [PCMTD2] | 3.33 ± 0.26 | 3.81 ± 0.12 | – | – |
| MAGTGLLALRTLPGPSWVRGSGPS [ALKBH7] | 2.68 ± 0.19 | 2.88 ± 0.11 | – | – |
| KSMAWCENSICVGFKRDYYLIRVD [VPS39] | 3 ± 1.3 | 2.39 ± 0.89 | – | – |
| ILPKELQAWVQKHHPENGEETVTM [ZNF396] | 3.5 ± 0.07 | 3.58 ± 0.29 | – | – |
| YQQIKAGAYDFPSPEWDTVTPEAK [CAMK2B] | 3.89 ± 0.34 | 4.15 ± 0.32 | – | – |
| QRKLKPPIVPKIAGDGDTSNFETY [PRKX] | 4.38 ± 0.16 | 4.47 ± 0.12 | – | – |
| VKYNSCADRPFSAPWWFWLSLTGV [POMT2] | 2.59 ± 0.35 | 2.72 ± 0.6 | – | – |

| Sequence | protein stability index [1] | protein stability index [2] | protein stability index (treatment: DMSO, c terminus: native) | protein stability index (treatment: MLN4924 1 uM, 8 h, c terminus: native) |
| --- | --- | --- | --- | --- |
| MPEYRGQGIGSKIIKKVAEVALDK [SAT2] | 3.65 ± 0.35 | 4.05 ± 0.27 | – | – |
| LISCSEDGSVRIWELREKQQLAAE [WDR41] | 2.89 ± 0.28 | 2.97 ± 0.2 | – | – |
| IGELLAPAAPFDKKCGRENWTVAF [WSB1] | 2.23 ± 0.12 | 2.57 ± 0.45 | – | – |
| QSRRTALATSPITVGDLGIVRRRS [YJU2B] | 4.27 ± 0.16 | 4.36 ± 0.25 | – | – |
| NESHSIKAILKNISVLAFSVCFIF [SLC29A1] | 2.79 ± 0.61 | 2.54 ± 0.4 | – | – |
| VSIIDTELKVKDSQPIDLSACTVA [TRIP13] | 3.28 ± 0.45 | 3.33 ± 0.29 | – | – |
| DCIFDKFECAWNGSDSVIMTGAYN [PPP2R2C] | 2.68 ± 0.3 | 2.74 ± 0.17 | – | – |
| AKILPSPVQGSSEDNLSLVCLPRS [DRICH1] | 3.94 ± 0.18 | 4.04 ± 0.18 | – | – |
| ICRVFSTSPAKDSLSFEDFLDLLS [CIB1] | 2.34 ± 0.25 | 2.2 ± 0.1 | – | – |
| LKKKHQLLEDARRKGMPFAQWDGP [PPFIA4] | 3.11 ± 0.37 | 3.31 ± 0.14 | – | – |
| DEDFTFGAYQPTVVSSEGRQSRRQ [FBF1] | 4.77 ± 0.24 | 4.89 ± 0.3 | – | – |
| VLFLDHVMYTIHMGCHGFRDPFEC [IKZF1] | 3 ± 0.26 | 2.96 ± 0.49 | – | – |
| QICAQVSFFFPPVNLPISFFRKLL [NLN] | 2.76 ± 0.039 | 3.45 ± 0.17 | – | – |
| QTRNGLGKDHEILRRRIENGAKEL [FUT8] | 4.34 ± 0.33 | 4.33 ± 0.1 | – | – |
| RDAIEALCRRLNTLNKCAVMKLEI [DLC1] | 2.13 ± 0.49 | 2.54 ± 0.17 | – | – |
| SAEINQDLNIQLLKDGYRLDEIPD [FAM219A] | 4.91 ± 0.062 | 5.08 ± 0.18 | – | – |
| NEVIADINCKGRSKSNLGWTPLHL [OSBPL1A] | 2.48 ± 0.38 | 2.76 ± 0.28 | – | – |
| DDDDDDAQILPSRVQGGCYRFDSS [DRICH1] | 4.65 ± 0.095 | 4.88 ± 0.15 | – | – |
| HSNGPTDLSMKGGASTTSTTPSAL [NOL4L] | 4.94 ± 0.19 | 4.94 ± 0.3 | – | – |
| TPKAAWIREEGRCSSSDDDTDVDM [PBXIP1] | 5.4 ± 0.32 | 5.19 ± 0.38 | – | – |
| QIKCIELKSELGRKWHKASNYIFV [P2RY14] | 2.72 ± 0.93 | 2.67 ± 0.47 | – | – |
| AVGSGERRGGGPVFPAPVVGSGGA [ZBTB22] | 4.39 ± 0.19 | 4.45 ± 0.38 | – | – |
